Usually EC50 stands for the concentration that produces a half-maximal response. Lower therefore signals a more potent agent.

One assay has as its target T1, mouse claudin-1 (Mus musculus, UniProt O88551).
T1 construct: These cells were subjected to ethanol (50 mM) treatment to induce claudin-1 expression; endogenous in cells; host or cells: bEnd.3 mouse brain microvascular endothelial cells
T1 sequence (O88551 1-211): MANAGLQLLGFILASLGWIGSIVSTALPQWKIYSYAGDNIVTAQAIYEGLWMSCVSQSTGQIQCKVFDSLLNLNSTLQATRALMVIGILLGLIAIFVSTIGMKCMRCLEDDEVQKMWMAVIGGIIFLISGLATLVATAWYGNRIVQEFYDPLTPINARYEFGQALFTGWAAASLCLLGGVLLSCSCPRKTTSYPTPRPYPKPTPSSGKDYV
Kind of assay: In vitro immunofluorescence of NP binding in bEnd.3 cells (control and ethanol induced). In kind it is cell-based. As to conditions: 4 hrs. As for the experimental part:
(§1) bEnd.3 cells were cultured according to the ATCC culture conditions in DMEM. These cells were subjected to ethanol (50 mM) treatment to induce claudin-1 expression and incubated with C1C2-NP for 4 hrs. For determining attachment of the C1C2-NP to human claudin-1, human claudin-1 encoded PCMV script plasmid was overexpressed in bEnd.3 cells and then incubated with C1C2-NP for 4 hrs.

For a further assay, the target named is T2, human claudin-1 (Homo sapiens, UniProt O95832).
T2 construct: made in house
T2 sequence (O95832 1-211): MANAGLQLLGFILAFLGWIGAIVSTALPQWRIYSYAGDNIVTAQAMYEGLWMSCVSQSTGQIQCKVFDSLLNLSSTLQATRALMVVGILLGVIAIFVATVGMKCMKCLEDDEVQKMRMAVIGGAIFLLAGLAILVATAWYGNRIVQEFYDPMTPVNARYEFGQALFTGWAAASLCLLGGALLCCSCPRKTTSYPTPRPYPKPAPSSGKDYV
As to the kind of experiment: In vitro immunofluorescence of NP binding in bEnd.3 cells transfected with human claudin-1 plasmid. As to conditions: cells transfected to express human claudin-1; 4 hrs. Format: cell-based. As for the experimental part:
as §1

In assay [1] the target is T3, human claudin-4 (human, UniProt O14493 1-209, limits assumed).
T3 sequence (looked up): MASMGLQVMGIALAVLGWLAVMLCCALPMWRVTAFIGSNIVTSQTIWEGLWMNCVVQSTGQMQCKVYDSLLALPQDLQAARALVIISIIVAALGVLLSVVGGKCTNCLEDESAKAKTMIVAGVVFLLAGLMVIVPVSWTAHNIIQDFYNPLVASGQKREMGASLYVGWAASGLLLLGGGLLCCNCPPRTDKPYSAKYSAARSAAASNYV
As to the kind of experiment: MST, sigmoidal dose-response fit (GraphPad Prism) of the FIG. 10A data; confidence interval undefined [panel B]. As to the method:
(§2) FIG. 10A is a graph showing binding of human claudins 3, 4 and 9 to C1C2-NPs using microscale thermophoresis. […] FIG. 10C is a graph showing the binding of human claudins 4 and 9 to control NPs monitored using microscale thermophoresis. […] Data fitting for human claudins 3, 4 and 9 were performed using Graph Pad Prism.
(§3) Human claudin-1 was expressed and purified as reported previously (Vecchio & Stroud, 2019, PNAS USA, 116:17817-24). MST measurements were performed using a Monolith instrument (NanoTemper Technologies). For experiments with human claudin-1, the assay buffer contained 10 mM Tris HCl, pH 8.0, 100 mM NaCl, 4% glycerol, and 0.04% n-Dodecyl-β-D-Maltopyranoside (β-DDM). NPs and peptides were labeled with AF647 prior to MST analysis as described above. For the binding experiments, the concentration of human claudin-1 was varied from 2.2-73,500 nM and the AF647-labeled C1C2-NP was fixed at 70 nM, while the AF647 labeled NPs and AF647 labeled C1C2 peptide were fixed at 1 and 0.3 μM, respectively. Binding of the AF647 labeled C1C2-NP to human claudin-3, -4, and -9 were tested using 0.4-14000 nM, 0.8-28000 nM, and 0.6-20000 nM, respectively; with the AF647 labeled C1C2-NP fixed at 70 nM. This assay buffer was similar, except β-DDM was replaced with 0.1% n-Undecyl-β-D-Maltopyranoside (beta-UDM).

In assay [2] the target is T3, human claudin-4. Kind of assay: MST, sigmoidal dose-response fit (GraphPad Prism) of the FIG. 10A data, M is the unit of the concentration axis of panel A; confidence interval undefined [panel B]. As for the experimental part: as §2, §3
The target in another assay is T4, human claudin-9 (human, UniProt O95484 1-217, limits assumed).
T4 sequence (looked up): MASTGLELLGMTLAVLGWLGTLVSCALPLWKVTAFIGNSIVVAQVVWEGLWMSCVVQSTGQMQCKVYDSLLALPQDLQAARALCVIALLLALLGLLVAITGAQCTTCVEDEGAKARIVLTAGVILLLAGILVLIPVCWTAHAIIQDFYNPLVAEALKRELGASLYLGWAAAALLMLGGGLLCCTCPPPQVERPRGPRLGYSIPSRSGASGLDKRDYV
Kind of assay: MST, sigmoidal dose-response fit (GraphPad Prism) of the FIG. 10A data; fit did not converge [panel B]. As to the method:
FIG. 10C is a graph showing the binding of human claudins 4 and 9 to control NPs monitored using microscale thermophoresis. […] Data fitting for human claudins 3, 4 and 9 were performed using Graph Pad Prism.
as §3, with “[…] All experiments were conducted at 23° C. using the nano-red channel of the Monolith instrument and the data were analyzed by using either Monolith analysis software or Graph Pad Prism, version 9 (Graph Pad Software, San Diego, California).” for “This assay buffer was similar, except β-DDM was replaced with 0.1% n-Undecyl-β-D-Maltopyranoside (beta-UDM).”

Turning to “C1C2-NP: PEG diacid coated ultrasmall Gd NP conjugated with C1C2 peptide SSVSQSTGQIQSKVDSLLNLNSTQATR (SEQ ID NO: 6); claudin-1 targeted (Ac-SSVSQSTGQIQSKVDSLLNLNSTQATR-NH2; also: conjugated to PEG diacid coated ultrasmall Gd nanoparticle)”, the “Binding to bEnd.3 cells” value in the assay with mouse claudin-1 (claudin-1 induced by ethanol (50 mM)) was “much higher binding”; with mouse claudin-1 (control cells, low claudin-1 expression), “no binding”; with human claudin-1 it was “High NP binding”.

B1: C1C2-NP (C1C2 peptide conjugated to PEG diacid coated ultrasmall Gd nanoparticles) (peptide)
peptide: Ac-SSVSQSTGQIQSKVDSLLNLNSTQATR-NH2
modifications: not fully specified; also: conjugated by EDC-NHS chemistry to PEG diacid on Gd oxide nanoparticle surface (19 peptides per 3.5 nm particle)
notes: The protein part is the C1C2 peptide; the core is not a protein; also called C1C2-NPs; C1C2 NPs
For B1, the LogEC50 with human claudin-4 [1] is -4.7; with human claudin-9, -0.661. This molecule also came in with an EC50 with human claudin-4 [2] of 20.1 µM.
